Measurements: publication PMC5674887

Assays:
[1] = molecular target: cNup153 (cysteine-tagged FG domain of human Nup153) (human) (UniProt P49790); test: SPR
[2] = molecular target: cNup214 (cysteine-tagged FG domain of human Nup214) (human) (UniProt P35658); test: SPR
[3] = molecular target: cNup62 (cysteine-tagged FG domain of human Nup62) (human) (UniProt P37198); test: SPR
[4] = molecular target: cNup98 (cysteine-tagged FG domain of human Nup98) (human) (UniProt P52948); test: SPR
[5] = molecular target: karyopherinβ1 (human) (UniProt Q14974); test: ITC
Chain of karyopherinβ1 (human) (Q14974 whole entry): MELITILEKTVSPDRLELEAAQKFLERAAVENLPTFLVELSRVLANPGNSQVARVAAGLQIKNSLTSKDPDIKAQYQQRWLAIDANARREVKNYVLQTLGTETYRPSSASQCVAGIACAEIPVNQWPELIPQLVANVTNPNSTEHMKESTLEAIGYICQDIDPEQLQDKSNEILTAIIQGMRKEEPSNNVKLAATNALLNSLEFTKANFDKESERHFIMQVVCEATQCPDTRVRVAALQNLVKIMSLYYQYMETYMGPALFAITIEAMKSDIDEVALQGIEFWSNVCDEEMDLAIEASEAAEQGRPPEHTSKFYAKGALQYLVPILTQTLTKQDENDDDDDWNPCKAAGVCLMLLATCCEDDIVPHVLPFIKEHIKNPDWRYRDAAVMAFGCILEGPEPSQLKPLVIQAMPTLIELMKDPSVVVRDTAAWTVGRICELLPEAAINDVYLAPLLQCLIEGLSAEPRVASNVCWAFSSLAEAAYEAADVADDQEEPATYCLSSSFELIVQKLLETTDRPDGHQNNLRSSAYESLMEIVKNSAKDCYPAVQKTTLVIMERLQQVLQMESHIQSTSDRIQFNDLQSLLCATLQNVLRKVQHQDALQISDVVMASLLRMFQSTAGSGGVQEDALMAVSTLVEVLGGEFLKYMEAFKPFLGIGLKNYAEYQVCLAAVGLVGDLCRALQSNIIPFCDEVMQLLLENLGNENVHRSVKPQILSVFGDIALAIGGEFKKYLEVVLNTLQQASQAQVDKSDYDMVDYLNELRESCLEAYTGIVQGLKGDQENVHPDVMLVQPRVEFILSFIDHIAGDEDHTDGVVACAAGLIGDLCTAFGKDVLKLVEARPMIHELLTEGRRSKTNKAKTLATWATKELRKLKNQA

Chain of cNup153 (cysteine-tagged FG domain of human Nup153) (human) (P49790 whole entry, the tested form may be a part): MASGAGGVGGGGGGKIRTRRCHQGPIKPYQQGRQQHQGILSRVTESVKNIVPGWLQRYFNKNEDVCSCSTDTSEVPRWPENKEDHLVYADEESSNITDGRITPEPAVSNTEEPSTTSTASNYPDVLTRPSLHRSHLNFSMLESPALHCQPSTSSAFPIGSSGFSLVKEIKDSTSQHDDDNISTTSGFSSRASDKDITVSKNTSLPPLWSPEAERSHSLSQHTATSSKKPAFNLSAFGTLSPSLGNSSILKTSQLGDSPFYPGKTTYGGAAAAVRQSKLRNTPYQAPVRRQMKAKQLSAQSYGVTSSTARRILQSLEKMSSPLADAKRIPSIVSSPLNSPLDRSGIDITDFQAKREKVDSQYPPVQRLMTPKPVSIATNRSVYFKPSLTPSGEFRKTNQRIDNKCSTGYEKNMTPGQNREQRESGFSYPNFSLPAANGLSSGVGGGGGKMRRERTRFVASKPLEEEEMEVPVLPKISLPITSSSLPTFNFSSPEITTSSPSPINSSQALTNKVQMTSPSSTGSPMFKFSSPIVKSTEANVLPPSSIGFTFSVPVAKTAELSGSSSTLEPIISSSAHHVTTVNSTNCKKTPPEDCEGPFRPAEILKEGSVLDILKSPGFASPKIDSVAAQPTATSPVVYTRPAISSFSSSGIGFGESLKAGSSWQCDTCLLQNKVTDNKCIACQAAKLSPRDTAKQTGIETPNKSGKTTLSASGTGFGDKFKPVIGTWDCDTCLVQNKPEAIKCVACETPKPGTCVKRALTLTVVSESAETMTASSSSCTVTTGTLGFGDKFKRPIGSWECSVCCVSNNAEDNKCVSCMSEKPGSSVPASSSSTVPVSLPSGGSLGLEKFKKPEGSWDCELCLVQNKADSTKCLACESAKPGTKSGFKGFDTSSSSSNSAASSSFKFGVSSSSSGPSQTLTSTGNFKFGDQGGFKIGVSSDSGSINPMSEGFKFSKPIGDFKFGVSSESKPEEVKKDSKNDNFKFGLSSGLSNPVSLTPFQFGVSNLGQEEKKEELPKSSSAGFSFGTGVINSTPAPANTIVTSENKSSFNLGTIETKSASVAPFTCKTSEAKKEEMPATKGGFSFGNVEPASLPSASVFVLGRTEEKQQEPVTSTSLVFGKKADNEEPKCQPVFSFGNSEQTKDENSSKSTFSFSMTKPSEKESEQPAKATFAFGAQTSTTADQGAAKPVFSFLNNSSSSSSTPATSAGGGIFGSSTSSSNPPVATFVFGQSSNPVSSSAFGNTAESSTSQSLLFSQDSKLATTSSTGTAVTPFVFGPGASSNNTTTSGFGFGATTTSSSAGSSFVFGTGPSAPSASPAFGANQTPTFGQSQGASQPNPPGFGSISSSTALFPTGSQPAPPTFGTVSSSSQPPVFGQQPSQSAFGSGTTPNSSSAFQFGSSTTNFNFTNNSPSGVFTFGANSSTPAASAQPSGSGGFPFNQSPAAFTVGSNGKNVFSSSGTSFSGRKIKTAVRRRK
Chain of cNup98 (cysteine-tagged FG domain of human Nup98) (human) (P52948 whole entry, the tested form may be a part): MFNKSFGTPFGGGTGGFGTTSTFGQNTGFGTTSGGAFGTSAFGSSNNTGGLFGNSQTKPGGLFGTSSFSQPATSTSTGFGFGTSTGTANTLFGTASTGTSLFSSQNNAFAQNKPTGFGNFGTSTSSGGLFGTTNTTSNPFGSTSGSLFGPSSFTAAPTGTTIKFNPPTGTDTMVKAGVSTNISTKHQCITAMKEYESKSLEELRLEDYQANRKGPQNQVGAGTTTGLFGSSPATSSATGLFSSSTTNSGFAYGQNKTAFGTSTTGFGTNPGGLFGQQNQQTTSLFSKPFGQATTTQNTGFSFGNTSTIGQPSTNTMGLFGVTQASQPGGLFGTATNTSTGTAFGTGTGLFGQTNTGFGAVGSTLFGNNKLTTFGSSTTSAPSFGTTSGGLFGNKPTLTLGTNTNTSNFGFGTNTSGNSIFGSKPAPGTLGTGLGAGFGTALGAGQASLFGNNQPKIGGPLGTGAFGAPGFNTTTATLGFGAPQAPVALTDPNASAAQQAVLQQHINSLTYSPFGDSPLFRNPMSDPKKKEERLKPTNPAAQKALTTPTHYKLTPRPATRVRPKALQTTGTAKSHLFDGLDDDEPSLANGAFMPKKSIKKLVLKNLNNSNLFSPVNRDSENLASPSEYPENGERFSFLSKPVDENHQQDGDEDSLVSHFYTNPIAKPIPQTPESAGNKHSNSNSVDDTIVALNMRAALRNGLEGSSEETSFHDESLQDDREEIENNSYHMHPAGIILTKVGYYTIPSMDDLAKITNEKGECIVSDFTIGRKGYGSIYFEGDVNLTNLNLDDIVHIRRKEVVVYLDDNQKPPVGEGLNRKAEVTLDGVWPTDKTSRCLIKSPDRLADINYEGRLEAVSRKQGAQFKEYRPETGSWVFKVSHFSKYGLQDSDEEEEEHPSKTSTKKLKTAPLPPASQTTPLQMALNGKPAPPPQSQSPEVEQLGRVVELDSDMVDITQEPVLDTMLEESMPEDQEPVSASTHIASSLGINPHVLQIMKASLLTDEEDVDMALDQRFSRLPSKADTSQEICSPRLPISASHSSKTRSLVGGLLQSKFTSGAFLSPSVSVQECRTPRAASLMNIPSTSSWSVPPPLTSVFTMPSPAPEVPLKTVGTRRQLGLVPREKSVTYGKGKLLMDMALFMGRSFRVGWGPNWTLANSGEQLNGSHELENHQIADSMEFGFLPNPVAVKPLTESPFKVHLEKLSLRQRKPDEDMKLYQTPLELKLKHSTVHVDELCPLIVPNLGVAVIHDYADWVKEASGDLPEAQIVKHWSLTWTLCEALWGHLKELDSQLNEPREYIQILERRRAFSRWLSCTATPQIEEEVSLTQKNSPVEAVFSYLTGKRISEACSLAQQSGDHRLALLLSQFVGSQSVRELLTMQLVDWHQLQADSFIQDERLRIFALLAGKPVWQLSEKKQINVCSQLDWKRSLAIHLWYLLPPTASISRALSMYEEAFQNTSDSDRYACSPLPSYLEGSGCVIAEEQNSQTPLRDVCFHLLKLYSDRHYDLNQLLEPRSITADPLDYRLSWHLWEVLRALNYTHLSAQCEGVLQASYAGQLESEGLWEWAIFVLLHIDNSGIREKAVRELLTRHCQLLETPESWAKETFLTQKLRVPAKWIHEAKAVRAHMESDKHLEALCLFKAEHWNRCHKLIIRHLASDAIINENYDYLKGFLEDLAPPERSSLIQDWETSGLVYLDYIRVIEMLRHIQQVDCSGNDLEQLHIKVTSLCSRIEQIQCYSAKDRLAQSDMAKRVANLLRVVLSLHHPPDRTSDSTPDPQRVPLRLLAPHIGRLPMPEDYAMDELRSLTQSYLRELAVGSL
Chain of cNup62 (cysteine-tagged FG domain of human Nup62) (human) (P37198 whole entry, the tested form may be a part): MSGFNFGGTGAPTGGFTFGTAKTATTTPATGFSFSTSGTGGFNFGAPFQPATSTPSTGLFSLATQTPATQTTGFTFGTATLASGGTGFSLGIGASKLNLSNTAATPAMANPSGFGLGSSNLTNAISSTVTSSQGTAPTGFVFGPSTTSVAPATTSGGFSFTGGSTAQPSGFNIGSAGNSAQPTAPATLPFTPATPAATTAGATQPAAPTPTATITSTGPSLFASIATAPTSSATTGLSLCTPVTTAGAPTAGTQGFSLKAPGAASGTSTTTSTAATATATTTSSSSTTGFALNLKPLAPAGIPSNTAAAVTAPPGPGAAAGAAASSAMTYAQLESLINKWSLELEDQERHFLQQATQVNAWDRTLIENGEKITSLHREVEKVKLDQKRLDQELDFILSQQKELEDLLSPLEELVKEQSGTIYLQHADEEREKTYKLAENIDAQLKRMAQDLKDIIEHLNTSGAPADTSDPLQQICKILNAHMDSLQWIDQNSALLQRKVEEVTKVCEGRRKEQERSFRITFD

| fold higher affinity than Kapβ1 and RanGTP·Kapβ1 (strong binding phase) [1] [fold] | fold higher affinity than Kapβ1 and RanGTP·Kapβ1 (strong binding phase) [2] [fold] | fold higher affinity than Kapβ1 and RanGTP·Kapβ1 (strong binding phase) [3] [fold] | fold higher affinity than Kapβ1 and RanGTP·Kapβ1 (strong binding phase) [4] [fold] | Kd [5] [nM] | Kd [1] [nM] | Substance |
| --- | --- | --- | --- | --- | --- | --- |
| 10 | 10 | 10 | 10 |  |  | Kapα·Kapβ1 (from UniProt P52292;Q14974) (complex) |
|  |  |  |  | 35 |  | RanGTP (from UniProt P62826 1-216) (natural protein) |
|  |  |  |  | 210 | 1300 | karyopherinα (from UniProt P52292 1-529) (natural protein) |
